US20240317865A1, “ANTIBODIES AGAINST INTEGRIN ALPHA 11 BETA 1” (MOMENTA PHARMACEUTICALS, INC., priority 2020, published 2024)
Entries after “also recorded” stand apart in the source; their conditions may differ.

T1: α11β1 I Domain (Homo sapiens, UniProt Q9UKX5)
T1 sequence (Q9UKX5 164-345 limits assumed): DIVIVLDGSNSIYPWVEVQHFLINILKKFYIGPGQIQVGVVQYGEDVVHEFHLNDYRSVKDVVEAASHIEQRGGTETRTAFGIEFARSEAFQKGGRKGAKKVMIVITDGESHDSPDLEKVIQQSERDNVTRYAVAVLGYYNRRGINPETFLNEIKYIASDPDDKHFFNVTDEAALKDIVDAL

T2: adhesion of CHO-K1 cells expressing human α11 to rat tail type I collagen (Homo sapiens, UniProt Q9UKX5)
T2 construct: expressed in transfected cells; host or cells: CHO-K1
T2 sequence (Q9UKX5 23-1188): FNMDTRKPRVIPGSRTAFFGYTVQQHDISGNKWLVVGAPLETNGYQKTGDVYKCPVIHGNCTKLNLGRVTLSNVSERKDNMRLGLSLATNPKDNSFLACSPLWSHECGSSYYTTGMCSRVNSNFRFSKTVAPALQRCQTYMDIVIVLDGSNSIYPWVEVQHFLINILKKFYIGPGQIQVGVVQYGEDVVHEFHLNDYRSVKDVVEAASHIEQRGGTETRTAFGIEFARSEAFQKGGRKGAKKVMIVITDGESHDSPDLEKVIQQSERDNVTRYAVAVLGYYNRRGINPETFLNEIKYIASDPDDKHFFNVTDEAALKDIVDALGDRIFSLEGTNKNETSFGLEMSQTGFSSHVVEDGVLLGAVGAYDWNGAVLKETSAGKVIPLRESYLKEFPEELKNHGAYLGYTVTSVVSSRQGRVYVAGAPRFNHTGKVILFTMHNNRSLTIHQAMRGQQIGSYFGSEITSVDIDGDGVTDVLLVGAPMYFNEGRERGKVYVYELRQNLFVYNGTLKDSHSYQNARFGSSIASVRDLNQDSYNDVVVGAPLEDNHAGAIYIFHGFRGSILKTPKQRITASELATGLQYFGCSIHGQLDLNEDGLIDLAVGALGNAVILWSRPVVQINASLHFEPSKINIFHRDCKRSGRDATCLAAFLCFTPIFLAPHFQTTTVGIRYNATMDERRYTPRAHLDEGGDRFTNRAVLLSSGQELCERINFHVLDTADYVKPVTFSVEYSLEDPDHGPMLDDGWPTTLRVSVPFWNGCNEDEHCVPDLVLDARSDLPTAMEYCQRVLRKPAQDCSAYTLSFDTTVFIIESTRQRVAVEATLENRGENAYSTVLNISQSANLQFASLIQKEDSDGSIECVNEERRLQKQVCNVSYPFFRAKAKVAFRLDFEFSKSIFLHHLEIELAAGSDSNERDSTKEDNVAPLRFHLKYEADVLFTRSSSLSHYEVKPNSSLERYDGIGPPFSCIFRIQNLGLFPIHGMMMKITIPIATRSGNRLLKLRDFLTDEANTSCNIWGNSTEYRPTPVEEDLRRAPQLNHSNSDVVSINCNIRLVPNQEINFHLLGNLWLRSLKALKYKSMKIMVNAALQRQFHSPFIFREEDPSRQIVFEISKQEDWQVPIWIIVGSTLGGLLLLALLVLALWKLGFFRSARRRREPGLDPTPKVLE

B1: 16E10: rabbit anti-α11β1 mAb; heavy chain SEQ ID NO: 161, light chain SEQ ID NO: 162 (antibody)
heavy: METGLRWLLLVAVLKGVQCQSLEESGGDLVKPGASLTLTCRVSGFSFSSSYYMCWVRQAPGKGLEWIACIGTTRGSTYYATWAKGRFTISKISSTTVTLQMTSLTDADTATYFCARDATGYRINTIGLYFNLWGPGTLVTVSSGQPKAPSVFPLAPCCGDTPSSTVTLGCLVKGYLPEPVTVTWNSGTLTNGVRTFPSVRQSSGLYSLSSVVSVTSSSQPVTCNVAHPATNTKVDKTVAPSTCSKPMCPPPELPGGPSVFIFPPKPKDTLMISRTPEVTCVVVDVSQDDPEVQFTWYINNEQVRTARPPLREQQFNSTIRVVSTLPIAHQDWLRGKEFKCKVHNKALPAPIEKTISKARGQPLEPKVYTMGPPREELSSRSVSLTCMINGFYPSDISVEWEKNGKAEDNYKTTPTVLDSDGSYFLYSKLSVPTSEWQRGDVFTCSVMHEALHNHYTQKSISRSPGK
light: MDTRAPTQLLGLLLLWLPGARCAFELTQTPSSVEAAVGGTPTIKCQASQTIYSYLSWYQQKPGQPPKLLIYEASKLASGVPSRFSGSGSGTDYTLTISDLECADAATYYCQSYHGTASTEYNTFGGGTEVVVRGDPVAPTVLIFPPAADQVATGTVTIVCVANKYFPDVTVTWEVDGTTQTTGIENSKTPQNSADCTYNLSSTLTLTSTQYNSHKEYTCKVTQGTTSVVQSFNRGDC
B2: 79E3E3: rat anti-α11β1 mAb; VH SEQ ID NO: 145, VL SEQ ID NO: 146 (antibody, V domains shown)
VH: MDWLWNLLFLMVVAQSAQAQIQLVQSGPEVKKPGESVKISCKASGYTFTDYAMNWVKQAPGNGLKWMGWINTQTGKPTYADDFKQRFVFSLETSARTTYLQINNLNIEDTATYFCTRLGTGNTKGFAYWGQGTLVTVSS
VL: MESQTHVLISLLLCVSGTCGDILINQSPASLTVSAGERVTMSCKSSQSLLYSENNQDYLAWYQQKPGQFPKLLIYGASNRHTGVPDRFTGSGSGTDFTLTISSVQAEDLADYYCEQTYRYPFTFGSGTKLEIK
B3: 9-G05: mouse anti-α11β1 mAb; VH SEQ ID NO: 103, VL SEQ ID NO: 104 (antibody, V domains shown)
VH: EVQLQQSGPELVKPGASVKIPCKASGYTFPDYNMDWVKQSHGKSLEWIGYINPDNGGTIYNQKFKGKATLTVDKSSSTAYMELRSLTSEDTAVYYCARLDSSGYGYYAMDYWGQGTSVTVSS
VL: DIVLTQSPASLAVSLGQRATISCRASESVDNYGISFMHWYQQKPGQPPKLLIYRASNLDSEIPARFSGSGSRTDFTLTIDPVETDDVATYYCQQSYKDPRTFGGGTKLEIK

How the values were obtained:
α11β1 Headpiece = experiment: SPR binding to α11β1 Headpiece; set-up: species or system human; conditions: in words
Experimental: (§1) The affinity of antibodies for human α11β1 was measured by surface plasmon resonance assay (SPR). Affinity was measured at pH 7.6 and 25° C. with a Biacore T200 instrument. Anti-HIS antibody was immobilized on the SPR sensor surface using EDC/NHS covalent attachment. HIS-tagged human α11β1 was captured on the sensor surface and a single-cycle kinetics assay was used. Increasing concentrations of test antibody were injected in series over the sensor-bound α11β1. Dissociation was monitored for 1000 seconds. A sensor surface with only anti-HIS antibody and a series of blank injections were used to double-reference subtract the data. A 1:1 Langmuir model was fit to the data to estimate the kinetic association and dissociation constants. The affinity (equilibrium dissociation constant) of the interaction was calculated by dividing the kinetic dissociation constant by the kinetic association constant. Between injection cycles α11β1 and bound antibody were removed with an injection of 10 mM glycine at pH 1.5.
(§2) The binding affinity of antibodies for the α11β1 Headpiece and α11β1 I Domain as measured by SPR is shown in FIG. 10A and FIG. 10B, respectively.

A549 cell xenografts = experiment: Tumor xenograft model; format: in vivo, C.B-17 SCID mice; conditions: A549 xenograft, SCID mice
Experimental: Fifty-six female C.B-17 SCID mice were inoculated with A549 cells (5×10^6 cells/mouse) subcutaneously in the flank. Once tumor volume reached ˜100 mm^3, animals were randomized amongst 7 groups of 8 mice each. Mice were then treated intraperitonealy every 3 days for a total of 7 doses with isotype controls or novel mAbs 79E3E3, 16E10 and 9G04 (2 and 20 mg/kg) or with docetaxel at 10 mg/kg every 4 days for a total of 6 doses. Tumor volumes and body weights were recorded twice a week with a gap of 2-3 days in between two measurements until any of the following conditions defined were observed: loss of 20% or more body weight; tumors that inhibit normal physiological function such as eating, drinking, and mobility; ulcerated tumors; tumor size greater than 2000 mm^3 and clinical observations of prostration, paralysis, seizures and hemorrhages.
In this example, studies were performed to determine if inhibition of α11β1 function with mAb results in xenograft growth inhibition. As shown in FIG. 16 and Table 4, blocking α11β1 on mouse CAFs impeded xenograft growth in SCID mice.

[1] = tested on: CHO-K1 human α11-mediated rat tail type I collagen gel contraction; experiment: Collagen gel contraction assay; format: cell-based; conditions: compared to untreated condition
Experimental: 24-well plates were blocked with 2% BSA in PBS overnight at 37° C. The following day, the plates were washed 3 times with PBS before being used in the assay. Human CHO cell lines expressing α11 were harvested and resuspended at 1.25×10^6 in ExpiCHO Expression Medium (Gibco™ Cat #A2910002). The collagen gel solution was prepared by diluting 3 mg/mL stock collagen type I (Gibco™ Collagen I Rat Protein, Tail Cat #A1048301) to 1 mg/mL in the media containing the CHO cells. Sodium hydroxide was added to the solution to neutralize the pH and 400 μL of the collagen solution was added to each well of the 24-well plates. For the wells where the antibodies were included in the collagen gel solution, CHO cells were prepared at 2.5×10^6 and the antibodies were prepared at 2× final concentration in ExpiCHO media. The cells and antibodies were then combined 1:1 before the addition of the stock collagen type 1. The gels were allowed to polymerize for 60 minutes at 37° C. Antibodies were added to the ExpiCHO media, which was then layered on top of the polymerized gel (400 μL/well). The gels were incubated for 6 days at 37° C. before gel contraction was quantified. Images of each well were analyzed using Image J and gel contraction was determined as a percentage of the initial gel area.
Selected exemplary antibodies were tested for the ability to inhibit cell-mediated 3D gel contraction because this ability is directly linked to the functionality of the exemplary antibodies.

α11β1 I Domain [2] = biological target: T1, α11β1 I Domain; experiment: SPR binding to α11β1 I Domain; conditions: in words
Experimental: as §1, §2

α11β1 I Domain [3] = biological target: T1, α11β1 I Domain; experiment: ELISA binding to in-house generated α11β1 I domain; set-up: An in-house generated I domain of α11β1 was used; made in house; conditions: in words
Experimental: 0.25 μg/mL of target antigen (recombinant human or mouse α11β1) was plated in a 96-well plate over night at 4° C. Plates were washed (PBS with 0.1% Tween-20), blocked (PBS with 2% BSA and 0.05% Tween-20) for 1 hour at room temperature and incubated with a range of antibody concentrations for 1 hour at room temperature. Subsequently, plates were washed and incubated with biotinylated anti-rabbit/mouse/human IgG in a 1:1000 dilution buffer and incubated for 1 hour at room temperature. After washing the plates, Streptavidin HRP was added at 1:200 in dilution buffer and incubated for 1 hour at room temperature. Ultra TMB ELISA substrate solution was added and the plates incubated for 5 minutes on a plate shaker. The reaction was stopped by adding stop solution to each well and plates were read at 450 nm.
Data was also collected to determine whether antibodies of interest bind to the I domain of α11β1. An in-house generated I domain of α11β1 was used. […] Mouse antibodies 10-F23, 10-L15, 7-O8, 6-A12, 9-G05 and 9-E16 and rabbit antibodies 7-H12 and 2-D3 were also tested for binding against the in-house generated α11β1 I domain. FIGS. 3A and 3B show graphs illustrating binding data from exemplary mAbs.

[4] = biological target: T2, adhesion of CHO-K1 cells expressing human α11 to rat tail type I collagen; experiment: Cell adhesion inhibition (CHO-K1 hu α11 cells to type I collagen, xCelligence); format: cell-based; conditions: in words
Experimental: 0.6×10^6 cells/mL were incubated with each antibody at a range of concentrations for 20 minutes at 37° C. E-Plate VIEW 96 PET plate coated with 100 ng/ml type I collagen or PBS overnight at room temperature was blocked in 3% BSA for 1 house at room temperature. After washing the plate with PBS, cell and antibody mixture was added to the wells and the plate was places into an xCelligence machine. Cell adhesion was recorded over 6 hours. The time point of maximum cell adhesion was used for comparison relative to control.
A CHO-K1 hu α11 cell line was used to assess the ability of mAbs to block α11β1-mediated binding to type I collagen. […] In the “Untreated” condition, cells were plated on type I collagen but no antibody was added and in the “Uncoated” condition, cells were seeded onto BSA-coated wells containing no type I collagen. Statistics were performed using one-way ANOVA followed by Dunnett's multiple comparisons test. […] Therefore, it is possible that these mAbs bind on an α11β1 domain that keeps the integrin in a low or intermediate affinity state. […] Nine human mAbs were also tested for their ability to inhibit the binding of human CHO-α11 cells to type I collagen.

| Molecule | Binding to α11β1 headpiece domain (SPR) (α11β1 Headpiece) | Tumor growth inhibition compared to isotype control (A549 cell xenografts) | Inhibition of CHO-hu α11-mediated collagen gel contraction [1] | Binding to α11β1 I domain (SPR) (α11β1 I Domain [2]) | Binding to the I domain of α11β1 (α11β1 I Domain [3]) | Inhibition of cell adhesion to type I collagen [4] |
| --- | --- | --- | --- | --- | --- | --- |
| B1 | do not bind | no significant inhibition of tumor growth | inhibited | do not bind | – | – |
| B2 | – | significantly inhibited tumor growth | inhibited | do bind | high and I-domain binder | – |
| B3 | – | – | inhibited | do bind | I-domain binders; also recorded: bound the I domain | decrease cell adhesion to collagen |
